Measurements: the supplement of paper PMC10567573

B1: TRIM39 (parent)
chain: ERDFPCPVCRKTSRYRSLRPNRQL

Variants of: B1
Test: protein stability index of a GFP-peptide fusion (GPS, HEK-293T) (PSI 1-6); higher = more stable
Settings: c terminus: a fixed tail appended
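Note: lentivirally expressed fusions sorted by FACS into six bins by GFP to DsRed ratio, PSI derived from sequencing read proportions per bin multiplied by bin number.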

Variant	protein stability index
ERDFPCPVCRGTSRYRSLRPNRQL [K11G]	1.75
ERDFPCPVCRSTSRYRSLRPNRQL [K11S]	2.25
ERDFPCPVCRDTSRYRSLRPNRQL [K11D]	1.7
ERDFPCPVCRNTSRYRSLRPNRQL [K11N]	3.36
ERDFPCPVCRATSRYRSLRPNRQL [K11A]	2.45
ERDFPCPVCRFTSRYRSLRPNRQL [K11F]	1.88
ERDFPCPVCRYTSRYRSLRPNRQL [K11Y]	1.8
ERDFPCPVCRHTSRYRSLRPNRQL [K11H]	3.77
ERDFPCPVCRVTSRYRSLRPNRQL [K11V]	1.63
ERDFPCPVCRWTSRYRSLRPNRQL [K11W]	2.84
ERDFPCPVCRQTSRYRSLRPNRQL [K11Q]	2.4
ERDFPCPVCRCTSRYRSLRPNRQL [K11C]	2.55
ERDFPCPVCRETSRYRSLRPNRQL [K11E]	1.17
ERDFPCPVCRMTSRYRSLRPNRQL [K11M]	1.65
ERDFPCPVCRRTSRYRSLRPNRQL [K11R]	1.85
ERDFPCPVCRPTSRYRSLRPNRQL [K11P]	2.54
ERDFPCPVCRITSRYRSLRPNRQL [K11I]	1.21
ERDFDCPVCRKTSRYRSLRPNRQL [P5D]	2.49
ERDFYCPVCRKTSRYRSLRPNRQL [P5Y]	2
ERDFGCPVCRKTSRYRSLRPNRQL [P5G]	1.67
ERDFLCPVCRKTSRYRSLRPNRQL [P5L]	3
ERDFCCPVCRKTSRYRSLRPNRQL [P5C]	2.9
ERDFICPVCRKTSRYRSLRPNRQL [P5I]	2.91
ERDFVCPVCRKTSRYRSLRPNRQL [P5V]	2.29

Variant	protein stability index
ERDFKCPVCRKTSRYRSLRPNRQL [P5K]	2.72
ERDFSCPVCRKTSRYRSLRPNRQL [P5S]	2.04
ERDFHCPVCRKTSRYRSLRPNRQL [P5H]	3.7
ERDFACPVCRKTSRYRSLRPNRQL [P5A]	1.74
ERDFTCPVCRKTSRYRSLRPNRQL [P5T]	2.93
ERDFECPVCRKTSRYRSLRPNRQL [P5E]	1.76
ERDFQCPVCRKTSRYRSLRPNRQL [P5Q]	1.18
ERDFNCPVCRKTSRYRSLRPNRQL [P5N]	1.84
ERDFWCPVCRKTSRYRSLRPNRQL [P5W]	1.87
ERDFMCPVCRKTSRYRSLRPNRQL [P5M]	2.26
ERDFFCPVCRKTSRYRSLRPNRQL [P5F]	1.81
ERDFPCPVCRKGSRYRSLRPNRQL [T12G]	2.05
ERDFPCPVCRKVSRYRSLRPNRQL [T12V]	2.02
ERDFPCPVCRKHSRYRSLRPNRQL [T12H]	1.55
ERDFPCPVCRKCSRYRSLRPNRQL [T12C]	2
ERDFPCPVCRKPSRYRSLRPNRQL [T12P]	1.55
ERDFPCPVCRKKSRYRSLRPNRQL [T12K]	2.64
ERDFPCPVCRKLSRYRSLRPNRQL [T12L]	2.13
ERDFPCPVCRKMSRYRSLRPNRQL [T12M]	2.36
ERDFPCPVCRKQSRYRSLRPNRQL [T12Q]	1.6
ERDFPCPVCRKSSRYRSLRPNRQL [T12S]	2.17
ERDFPCPVCRKDSRYRSLRPNRQL [T12D]	1.37
ERDFPCPVCRKFSRYRSLRPNRQL [T12F]	2.88
ERDFPCPVCRKYSRYRSLRPNRQL [T12Y]	1.7

Variant	protein stability index
ERDFPCPVCRKASRYRSLRPNRQL [T12A]	2.64
ERDFPCPVCRKISRYRSLRPNRQL [T12I]	1.71
ERDFPCPVCRKWSRYRSLRPNRQL [T12W]	2.44
ERDFPCPVCVKTSRYRSLRPNRQL [R10V]	2.04
ERDFPCPVCEKTSRYRSLRPNRQL [R10E]	1.91
ERDFPCPVCKKTSRYRSLRPNRQL [R10K]	2.14
ERDFPCPVCSKTSRYRSLRPNRQL [R10S]	1.15
ERDFPCPVCFKTSRYRSLRPNRQL [R10F]	1.74
ERDFPCPVCQKTSRYRSLRPNRQL [R10Q]	2.08
ERDFPCPVCMKTSRYRSLRPNRQL [R10M]	2.88
ERDFPCPVCAKTSRYRSLRPNRQL [R10A]	1.88
ERDFPCPVCIKTSRYRSLRPNRQL [R10I]	2.6
ERDFPCPVCYKTSRYRSLRPNRQL [R10Y]	2.03
ERDFPCPVCLKTSRYRSLRPNRQL [R10L]	2.45
ERDFPCPVCTKTSRYRSLRPNRQL [R10T]	2.16
ERDFPCPVCCKTSRYRSLRPNRQL [R10C]	3.16
ERDFPCPVCGKTSRYRSLRPNRQL [R10G]	4.1
ERDFPCPVCHKTSRYRSLRPNRQL [R10H]	2.53
ERDFPCPVCNKTSRYRSLRPNRQL [R10N]	2.22
ERDFPCPVCDKTSRYRSLRPNRQL [R10D]	2.89
ERDFPCPVCPKTSRYRSLRPNRQL [R10P]	3.13
ERDFPVPVCRKTSRYRSLRPNRQL [C6V]	3.23
ERDFPYPVCRKTSRYRSLRPNRQL [C6Y]	3.21
ERDFPGPVCRKTSRYRSLRPNRQL [C6G]	3.97

Variant	protein stability index
ERDFPLPVCRKTSRYRSLRPNRQL [C6L]	3.19
ERDFPAPVCRKTSRYRSLRPNRQL [C6A]	2.69
ERDFPSPVCRKTSRYRSLRPNRQL [C6S]	3.17
ERDFPQPVCRKTSRYRSLRPNRQL [C6Q]	3.24
ERDFPHPVCRKTSRYRSLRPNRQL [C6H]	3.61
ERDFPKPVCRKTSRYRSLRPNRQL [C6K]	3.13
ERDFPFPVCRKTSRYRSLRPNRQL [C6F]	2.03
ERDFPTPVCRKTSRYRSLRPNRQL [C6T]	3.02
ERDFPDPVCRKTSRYRSLRPNRQL [C6D]	3.74
ERDFPWPVCRKTSRYRSLRPNRQL [C6W]	2.01
ERDFPMPVCRKTSRYRSLRPNRQL [C6M]	3.1
ERDFPIPVCRKTSRYRSLRPNRQL [C6I]	3.24
ERDRPCPVCRKTSRYRSLRPNRQL [F4R]	2.09
ERDYPCPVCRKTSRYRSLRPNRQL [F4Y]	2.84
ERDSPCPVCRKTSRYRSLRPNRQL [F4S]	1.81
ERDIPCPVCRKTSRYRSLRPNRQL [F4I]	2.35
ERDQPCPVCRKTSRYRSLRPNRQL [F4Q]	2.13
ERDNPCPVCRKTSRYRSLRPNRQL [F4N]	2.89
ERDTPCPVCRKTSRYRSLRPNRQL [F4T]	1.82
ERDVPCPVCRKTSRYRSLRPNRQL [F4V]	2.39
ERDPPCPVCRKTSRYRSLRPNRQL [F4P]	2.41
ERDMPCPVCRKTSRYRSLRPNRQL [F4M]	2.48
ERDKPCPVCRKTSRYRSLRPNRQL [F4K]	2.86
ERDLPCPVCRKTSRYRSLRPNRQL [F4L]	2.1

Variant	protein stability index
ERDHPCPVCRKTSRYRSLRPNRQL [F4H]	3.14
ERDFPCPVVRKTSRYRSLRPNRQL [C9V]	3.26
ERDFPCPVQRKTSRYRSLRPNRQL [C9Q]	3.81
ERDFPCPVTRKTSRYRSLRPNRQL [C9T]	3.77
ERDFPCPVDRKTSRYRSLRPNRQL [C9D]	4.01
ERDFPCPVSRKTSRYRSLRPNRQL [C9S]	3.77
ERDFPCPVPRKTSRYRSLRPNRQL [C9P]	2.92
ERDFPCPVGRKTSRYRSLRPNRQL [C9G]	3.91
ERDFPCPVIRKTSRYRSLRPNRQL [C9I]	3.29
ERDFPCPVMRKTSRYRSLRPNRQL [C9M]	3.41
ERDFPCPVNRKTSRYRSLRPNRQL [C9N]	2.78
ERDFPCPVHRKTSRYRSLRPNRQL [C9H]	2.56
ERDFPCPVYRKTSRYRSLRPNRQL [C9Y]	3.62
ERDFPCPVKRKTSRYRSLRPNRQL [C9K]	3.42
ERDFPCPVARKTSRYRSLRPNRQL [C9A]	3.79
ERDFPCPVFRKTSRYRSLRPNRQL [C9F]	2.45
ERDFPCPVCRKTARYRSLRPNRQL [S13A]	2.01
ERDFPCPVCRKTMRYRSLRPNRQL [S13M]	2.61
ERDFPCPVCRKTCRYRSLRPNRQL [S13C]	2.82
ERDFPCPVCRKTVRYRSLRPNRQL [S13V]	2.1
ERDFPCPVCRKTIRYRSLRPNRQL [S13I]	2.4
ERDFPCPVCRKTGRYRSLRPNRQL [S13G]	2.52
ERDFPCPVCRKTFRYRSLRPNRQL [S13F]	2.46
ERDFPCPVCRKTWRYRSLRPNRQL [S13W]	2.39

Variant	protein stability index
ERDFPCPVCRKTRRYRSLRPNRQL [S13R]	2.49
ERDFPCPVCRKTDRYRSLRPNRQL [S13D]	2.56
ERDFPCPVCRKTKRYRSLRPNRQL [S13K]	1.77
ERDFPCPVCRKTERYRSLRPNRQL [S13E]	2.21
ERDFPCPVCRKTQRYRSLRPNRQL [S13Q]	2.1
ERDFPCPVCRKTHRYRSLRPNRQL [S13H]	2.82
ERDFPCPVCRKTNRYRSLRPNRQL [S13N]	2.12
ERDFPCPVCRKTLRYRSLRPNRQL [S13L]	2.4
ERDFPCPVCRKTPRYRSLRPNRQL [S13P]	2.74
ERDFPCPVCRKTSTYRSLRPNRQL [R14T]	1.58
ERDFPCPVCRKTSDYRSLRPNRQL [R14D]	2.08
ERDFPCPVCRKTSYYRSLRPNRQL [R14Y]	2.42
ERDFPCPVCRKTSHYRSLRPNRQL [R14H]	2.15
ERDFPCPVCRKTSGYRSLRPNRQL [R14G]	2.13
ERDFPCPVCRKTSNYRSLRPNRQL [R14N]	1.67
ERDFPCPVCRKTSKYRSLRPNRQL [R14K]	1.9
ERDFPCPVCRKTSCYRSLRPNRQL [R14C]	2.85
ERDFPCPVCRKTSEYRSLRPNRQL [R14E]	3.71
ERDFPCPVCRKTSPYRSLRPNRQL [R14P]	1.82
ERDFPCPVCRKTSFYRSLRPNRQL [R14F]	1.96
ERDFPCPVCRKTSMYRSLRPNRQL [R14M]	1.92
ERDFPCPVCRKTSLYRSLRPNRQL [R14L]	2.09
ERDFPCPVCRKTSVYRSLRPNRQL [R14V]	1.39
ERDFPCPVCRKTSQYRSLRPNRQL [R14Q]	2

Variant	protein stability index
ERDFPCPVCRKTSAYRSLRPNRQL [R14A]	2.46
ERDFPCPVCRKTSIYRSLRPNRQL [R14I]	2.28
ERDFPCPVCRKTSSYRSLRPNRQL [R14S]	1.66
ERDFPCPICRKTSRYRSLRPNRQL [V8I]	2.38
ERDFPCPRCRKTSRYRSLRPNRQL [V8R]	3.23
ERDFPCPCCRKTSRYRSLRPNRQL [V8C]	2.66
ERDFPCPQCRKTSRYRSLRPNRQL [V8Q]	2.35
ERDFPCPGCRKTSRYRSLRPNRQL [V8G]	2.75
ERDFPCPECRKTSRYRSLRPNRQL [V8E]	1.72
ERDFPCPSCRKTSRYRSLRPNRQL [V8S]	3.84
ERDFPCPDCRKTSRYRSLRPNRQL [V8D]	2.2
ERDFPCPLCRKTSRYRSLRPNRQL [V8L]	1.96
ERDFPCPACRKTSRYRSLRPNRQL [V8A]	2.89
ERDFPCPNCRKTSRYRSLRPNRQL [V8N]	2.43
ERDFPCPHCRKTSRYRSLRPNRQL [V8H]	2.34
ERDFPCPPCRKTSRYRSLRPNRQL [V8P]	3.91
ERDFPCPKCRKTSRYRSLRPNRQL [V8K]	2.68
ERDFPCPTCRKTSRYRSLRPNRQL [V8T]	3.06
ERDFPCPFCRKTSRYRSLRPNRQL [V8F]	1.41
ERDFPCPMCRKTSRYRSLRPNRQL [V8M]	2.31
ERDFPCPYCRKTSRYRSLRPNRQL [V8Y]	1.95
ERDFPCPVCRKTSRERSLRPNRQL [Y15E]	2.19
ERDFPCPVCRKTSRCRSLRPNRQL [Y15C]	2.24
ERDFPCPVCRKTSRDRSLRPNRQL [Y15D]	3.02

Variant	protein stability index
ERDFPCPVCRKTSRFRSLRPNRQL [Y15F]	2.31
ERDFPCPVCRKTSRGRSLRPNRQL [Y15G]	1.83
ERDFPCPVCRKTSRHRSLRPNRQL [Y15H]	2.68
ERDFPCTVCRKTSRYRSLRPNRQL [P7T]	1.85
ERDFPCSVCRKTSRYRSLRPNRQL [P7S]	2.22
ERDFPCWVCRKTSRYRSLRPNRQL [P7W]	1.96
ERDFPCMVCRKTSRYRSLRPNRQL [P7M]	2.17
ERDFPCFVCRKTSRYRSLRPNRQL [P7F]	1.8
ERDFPCAVCRKTSRYRSLRPNRQL [P7A]	2.2
ERDFPCHVCRKTSRYRSLRPNRQL [P7H]	3.7
ERDFPCCVCRKTSRYRSLRPNRQL [P7C]	1.94
ERDFPCNVCRKTSRYRSLRPNRQL [P7N]	2.19
ERDFPCRVCRKTSRYRSLRPNRQL [P7R]	2.88
ERDFPCKVCRKTSRYRSLRPNRQL [P7K]	2.6
ERDFPCYVCRKTSRYRSLRPNRQL [P7Y]	2.09
ERDFPCLVCRKTSRYRSLRPNRQL [P7L]	2.37
ERDFPCQVCRKTSRYRSLRPNRQL [P7Q]	1.96
ERDFPCIVCRKTSRYRSLRPNRQL [P7I]	2.75
ERDFPCDVCRKTSRYRSLRPNRQL [P7D]	2.43
ERDFPCGVCRKTSRYRSLRPNRQL [P7G]	2.38
